Experimental data from paper PMC5551713 (The Journal of Cell Biology, 2017).

Tests used:
Assay in all cases: negative-stain TEM
[1] = biological target: muscle PFK1 (PFKM), phosphofructokinase-1, 780-amino-acid isoform 2 (human) (UniProt P08237)
[2] = biological target: platelet PFK1 (PFKP), phosphofructokinase-1 (human) (UniProt Q01813)
[3] = biological target: PFKL-H199Y, point mutant at the sugar substrate binding site (human) (UniProt P17858)
negative-stain TEM = biological target: the molecule itself

Molecule “muscle PFK1 (PFKM), phosphofructokinase-1, 780-amino-acid isoform 2 (from UniProt P08237-1 1-780) (enzyme)” has a stoichiometry N [1] of 4.

Work on “platelet PFK1 (PFKP), phosphofructokinase-1 (from UniProt Q01813 1-784) (enzyme)” yielded a stoichiometry N [2] of 4.

In the case of “PFKL-H199Y, point mutant at the sugar substrate binding site (from UniProt P17858-1 1-780) (enzyme)”, the stoichiometry N [3] is reported as 4.

B1: liver PFK1 (PFKL), phosphofructokinase-1, 780-amino-acid isoform b (enzyme, human, UniProt P17858-1 1-780, looked up)
chain: MAAVDLEKLRASGAGKAIGVLTSGGDAQGMNAAVRAVTRMGIYVGAKVFLIYEGYEGLVEGGENIKQANWLSVSNIIQLGGTIIGSARCKAFTTREGRRAAAYNLVQHGITNLCVIGGDGSLTGANIFRSEWGSLLEELVAEGKISETTARTYSHLNIAGLVGSIDNDFCGTDMTIGTDSALHRIMEVIDAITTTAQSHQRTFVLEVMGRHCGYLALVSALASGADWLFIPEAPPEDGWENFMCERLGETRSRGSRLNIIIIAEGAIDRNGKPISSSYVKDLVVQRLGFDTRVTVLGHVQRGGTPSAFDRILSSKMGMEAVMALLEATPDTPACVVTLSGNQSVRLPLMECVQMTKEVQKAMDDKRFDEATQLRGGSFENNWNIYKLLAHQKPPKEKSNFSLAILNVGAPAAGMNAAVRSAVRTGISHGHTVYVVHDGFEGLAKGQVQEVGWHDVAGWLGRGGSMLGTKRTLPKGQLESIVENIRIYGIHALLVVGGFEAYEGVLQLVEARGRYEELCIVMCVIPATISNNVPGTDFSLGSDTAVNAAMESCDRIKQSASGTKRRVFIVETMGGYCGYLATVTGIAVGADAAYVFEDPFNIHDLKVNVEHMTEKMKTDIQRGLVLRNEKCHDYYTTEFLYNLYSSEGKGVFDCRTNVLGHLQQGGAPTPFDRNYGTKLGVKAMLWLSEKLREVYRKGRVFANAPDSACVIGLKKKAVAFSPVTELKKDTDFEHRMPREQWWLSLRLMLKMLAQYRISMAAYVSGELEHVTRRTLSMDKGF
B1 was tested, and the “stoichiometry N” value (negative-stain TEM) was 4.
